In general, Km refers to the substrate concentration at which the rate is half of its maximum.

Substrate in this data set: CN(C)c1ccc(-c2cc[n+](C)cc2)cc1
Put plainly: concentration-dependent fluorescent uptake, Lineweaver-Burk; blocked by nomifensine. In kind it is cell-based, Mus musculus.

B1: DA uptake transporter (DAT) (Mus musculus) (protein)
chain: MSKSKCSVGPMSSVVAPAKEPNAVGPREVELILVKEQNGVQLTNSTLINPPQTPVEVQERETWSKKIDFLLSVIGFAVDLANVWRFPYLCYKNGGGAFLVPYLLFMVIAGMPLFYMELALGQFNREGAAGVWKICPVLKGVGFTVILISFYVGFFYNVIIAWALHYFFSSFTMDLPWIHCNNTWNSPNCSDAHSSNSSDGLGLNDTFGTTPAAEYFERGVLHLHQSRGIDDLGPPRWQLTACLVLVIVLLYFSLWKGVKTSGKVVWITATMPYVVLTALLLRGVTLPGAMDGIRAYLSVDFYRLCEASVWIDAATQVCFSLGVGFGVLIAFSSYNKFTNNCYRDAIITTSINSLTSFSSGFVVFSFLGYMAQKHNVPIRDVATDGPGLIFIIYPEAIATLPLSSAWAAVFFLMLLTLGIDSAMGGMESVITGLVDEFQLLHRHRELFTLGIVLATFLLSLFCVTNGGIYVFTLLDHFAAGTSILFGVLIEAIGVAWFYGVQQFSDDIKQMTGQRPNLYWRLCWKLVSPCFLLYVVVVSIVTFRPPHYGAYIFPDWANALGWIIATSSMAMVPIYATYKFCSLPGSFREKLAYAITPEKDRQLVDRGEVRQFTLRHWLLV
notes: native transporter in cultured primary mouse SN and VTA dopaminergic neurons
On to B1, for which the Km was found to be 16.9 ± 5.5 µM.
